Laboratory results from PMC6778522.

Biological target: PRC2 catalytic core (EZH2-EED-SUZ12 VEFS) (UniProt Q15910;O75530;Q15022 1-746;1-441;545-726)
Assay: competition

PRC2 catalytic core (EZH2-EED-SUZ12 VEFS), sequence (Q15910 whole entry, chain 1 of 3): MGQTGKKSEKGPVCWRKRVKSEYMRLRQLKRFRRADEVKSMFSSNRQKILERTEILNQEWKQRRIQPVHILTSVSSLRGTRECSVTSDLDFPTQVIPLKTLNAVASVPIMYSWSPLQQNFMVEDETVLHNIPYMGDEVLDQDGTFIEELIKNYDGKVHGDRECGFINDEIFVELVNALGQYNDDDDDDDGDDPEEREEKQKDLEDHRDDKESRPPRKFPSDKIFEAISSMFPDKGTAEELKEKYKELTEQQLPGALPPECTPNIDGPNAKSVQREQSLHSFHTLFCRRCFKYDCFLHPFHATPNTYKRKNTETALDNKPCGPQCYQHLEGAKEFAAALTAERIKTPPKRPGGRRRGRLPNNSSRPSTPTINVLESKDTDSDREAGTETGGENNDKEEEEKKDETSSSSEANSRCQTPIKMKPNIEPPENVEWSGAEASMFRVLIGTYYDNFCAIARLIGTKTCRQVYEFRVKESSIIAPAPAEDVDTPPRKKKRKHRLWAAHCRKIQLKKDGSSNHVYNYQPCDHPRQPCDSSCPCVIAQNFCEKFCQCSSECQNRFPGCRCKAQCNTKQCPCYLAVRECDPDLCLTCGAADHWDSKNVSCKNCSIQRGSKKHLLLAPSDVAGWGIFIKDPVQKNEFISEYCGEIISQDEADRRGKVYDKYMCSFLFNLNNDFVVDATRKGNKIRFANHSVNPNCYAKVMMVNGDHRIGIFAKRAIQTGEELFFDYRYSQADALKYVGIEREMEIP
PRC2 catalytic core (EZH2-EED-SUZ12 VEFS), sequence (O75530 whole entry, chain 2 of 3): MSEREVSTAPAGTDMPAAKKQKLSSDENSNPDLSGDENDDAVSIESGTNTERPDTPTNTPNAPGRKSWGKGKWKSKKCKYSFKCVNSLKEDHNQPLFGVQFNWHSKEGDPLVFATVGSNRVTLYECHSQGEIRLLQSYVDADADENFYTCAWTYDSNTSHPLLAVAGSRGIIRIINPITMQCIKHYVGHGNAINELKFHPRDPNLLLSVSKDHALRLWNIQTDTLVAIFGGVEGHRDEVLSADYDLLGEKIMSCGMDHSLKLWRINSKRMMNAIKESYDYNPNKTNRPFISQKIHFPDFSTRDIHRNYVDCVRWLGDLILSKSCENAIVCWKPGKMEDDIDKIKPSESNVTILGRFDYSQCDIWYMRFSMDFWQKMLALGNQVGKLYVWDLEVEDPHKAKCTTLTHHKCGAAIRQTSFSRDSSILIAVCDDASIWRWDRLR
PRC2 catalytic core (EZH2-EED-SUZ12 VEFS), sequence (Q15022 545-726, chain 3 of 3): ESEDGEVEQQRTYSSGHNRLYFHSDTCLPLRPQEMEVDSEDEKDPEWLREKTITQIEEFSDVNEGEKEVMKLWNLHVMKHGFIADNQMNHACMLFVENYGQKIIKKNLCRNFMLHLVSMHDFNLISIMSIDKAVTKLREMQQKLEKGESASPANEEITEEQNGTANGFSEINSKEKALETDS

B1: PIM1 G4 RNA competitor (structured_RNA)
RNA: CGGGGGUGGGGGGUGGGGGUGGGU
  binding result: binds
